Assay results published in US20240294650A1 (Alector, published 2024).
Positions count from the first letter of the chain named.

T1: human MerTK (human, UniProt Q12866 21-999)
T1 construct: endogenous receptor on cells; also called human MerTK endogenously expressed on SK-MEL-5 cells; MerTK on human macrophages
T1 sequence: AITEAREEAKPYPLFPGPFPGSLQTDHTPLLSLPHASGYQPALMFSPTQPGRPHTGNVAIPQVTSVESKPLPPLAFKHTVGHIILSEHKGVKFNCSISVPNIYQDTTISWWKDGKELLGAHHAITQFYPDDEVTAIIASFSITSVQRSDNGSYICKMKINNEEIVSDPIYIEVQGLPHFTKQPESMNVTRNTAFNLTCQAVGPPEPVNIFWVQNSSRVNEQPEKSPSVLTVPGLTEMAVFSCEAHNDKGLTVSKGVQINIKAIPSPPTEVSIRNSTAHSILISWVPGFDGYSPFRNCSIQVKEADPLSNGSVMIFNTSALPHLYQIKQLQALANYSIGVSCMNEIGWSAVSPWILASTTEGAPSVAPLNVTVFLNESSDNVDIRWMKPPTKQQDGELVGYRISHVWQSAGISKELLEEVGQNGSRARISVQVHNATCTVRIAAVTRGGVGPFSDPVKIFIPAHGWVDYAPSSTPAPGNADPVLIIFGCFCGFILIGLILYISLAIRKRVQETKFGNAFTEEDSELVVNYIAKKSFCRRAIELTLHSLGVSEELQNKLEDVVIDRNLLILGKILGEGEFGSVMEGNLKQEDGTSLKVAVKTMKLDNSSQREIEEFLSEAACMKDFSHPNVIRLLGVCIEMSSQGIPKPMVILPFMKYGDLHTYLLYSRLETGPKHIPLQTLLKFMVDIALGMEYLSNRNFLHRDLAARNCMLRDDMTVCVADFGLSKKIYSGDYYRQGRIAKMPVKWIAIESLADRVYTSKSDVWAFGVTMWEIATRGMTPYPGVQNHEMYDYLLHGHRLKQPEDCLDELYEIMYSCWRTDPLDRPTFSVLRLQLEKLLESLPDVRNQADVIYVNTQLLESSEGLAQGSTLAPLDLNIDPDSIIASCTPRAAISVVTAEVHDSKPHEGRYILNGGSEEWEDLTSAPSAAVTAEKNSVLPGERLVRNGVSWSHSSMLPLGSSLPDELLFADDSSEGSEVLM

T2: endogenous murine MerTK on bone marrow-derived macrophages (mouse, UniProt Q60805 19-994)
T2 construct: whole, on cells; MFI on MerTK KO BMDM subtracted; also called BMDM WT-KO
T2 sequence (looked up): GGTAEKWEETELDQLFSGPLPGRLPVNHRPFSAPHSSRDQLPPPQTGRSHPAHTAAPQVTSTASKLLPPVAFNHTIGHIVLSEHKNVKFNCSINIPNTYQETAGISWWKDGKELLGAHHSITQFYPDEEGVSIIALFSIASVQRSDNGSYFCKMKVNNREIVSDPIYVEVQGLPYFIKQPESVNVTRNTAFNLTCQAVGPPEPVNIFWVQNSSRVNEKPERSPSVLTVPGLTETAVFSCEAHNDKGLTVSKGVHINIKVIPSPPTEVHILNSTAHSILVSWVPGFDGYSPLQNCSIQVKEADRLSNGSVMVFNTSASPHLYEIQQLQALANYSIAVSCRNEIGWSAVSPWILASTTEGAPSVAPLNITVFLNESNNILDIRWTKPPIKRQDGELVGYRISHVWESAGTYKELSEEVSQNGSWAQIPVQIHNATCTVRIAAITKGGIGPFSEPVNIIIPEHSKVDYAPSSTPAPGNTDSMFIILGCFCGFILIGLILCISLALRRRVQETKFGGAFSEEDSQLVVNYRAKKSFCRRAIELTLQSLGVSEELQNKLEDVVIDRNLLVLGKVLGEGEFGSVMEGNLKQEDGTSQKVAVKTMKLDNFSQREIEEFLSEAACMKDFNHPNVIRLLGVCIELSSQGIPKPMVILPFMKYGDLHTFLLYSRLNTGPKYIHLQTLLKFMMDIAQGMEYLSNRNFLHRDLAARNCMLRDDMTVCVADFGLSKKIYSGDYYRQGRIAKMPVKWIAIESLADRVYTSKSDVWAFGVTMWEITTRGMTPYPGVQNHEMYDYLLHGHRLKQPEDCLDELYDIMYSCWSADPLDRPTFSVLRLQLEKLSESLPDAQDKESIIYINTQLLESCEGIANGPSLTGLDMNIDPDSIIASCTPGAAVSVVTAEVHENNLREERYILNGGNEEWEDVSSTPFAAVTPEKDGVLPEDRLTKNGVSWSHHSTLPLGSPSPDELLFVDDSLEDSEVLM

T3: mouse MerTK overexpressed on CHO cells (mouse, UniProt Q60805 19-994)
T3 construct: whole, on cells; also called CHO-muMerTK OE
T3 sequence (looked up): T2 sequence (looked up)

B1: MTK-212 (antibody, human IgG1, V domains shown)
VH: QVQLQQSGPELVKPGASVKISCKASGYAFSSSWVNWVKQRPGKGLEWIGRIYPGDGDSNYNGNFKGKATLTADKSSNTAYLQLSSLTSEDSAVYFCARKSHFIYYTLDYWGQGTPVTVSS
VL: DIVMTQSHKFKSTSVGDRVSIACKASQDVGTSVAWYQQKPGKSPKLLIYWASSRHTGVPDRFTGSGSGTDFTLTISNVQSEDLTDYFCQQYSTYPYTFGGGTKLEIK
B2: MTK-225 (antibody, human IgG1, V domains shown)
VH: EVQLQQSGPELVKPGASVKIFCKASGYTFTAYNMDWVKQSHGKSLEWIGDINPNNGGTIYNQKFKGKATLTVDKSSSTAYMELRSLTSEDTAVYYCARRRRYGNTYYWYFDVWGTGTTVTVSS
VL: DIQMTQSPASLSVSVGETVTITCRASENIYSSLAWYQQKQGKSPQLLVYAATNLADGVPSRFSGSGSGTQFYLKINGLQSEDFGSYYCQHFWGTSYTFGGGTKLEIK
B3: MTK-231 (antibody, human IgG1, V domains shown)
VH: DVQLQESGPGLVKPSQSLSLTCSVTGYSITSGYYWNWIRQFPGNKLEWMGYISYDGTYNYHPSLKNRISITRDTSKNQFFLTLNSVTTEDTATFYCTRGGGYWGQGTSVTVSS
VL: DVVMTQTPLSLPVSLGDQASISCRSSQSLVHSDGNTYLHWYLQKPGQSPKLLIYKVSNRFSGVPDRFSGSGSGTDFTLKISRLEAEDLGIYFCSQTTHIPLTFGSGTKLEIK
B4: MTK-202 (antibody, human IgG1, V domains shown)
VH: EVQLVESGGGLVKPGGSLKLSCAASGFTFSDFGMHWVRQVPEKGLEWVAFISGGSNTIYYTDTVKGRFTISRDNAKNTLFLQMTSLRSEDTAMYYCVRNGNSFAYWGQGTLVTVSA
VL: NIMMTQSPSSLAVSAGEKVTMNCKSSQSVLYSSNQKNYLAWYQQKPGQSPKLLIYWASTRESGVPDRFTGSGSGTDFTLTISNIQAEDLAIYYCHQYFFSWTFGGGTKLEIK
B5: MTK-204 (antibody, human IgG1, V domains shown)
VH: EVQLVESGGGLVKPGGSLKLSCAASGFTFSDYGMHWVRQAPEKGLEWVAYISSGTSTIYYEDTVKGRFTISRDNAKNTLFLQMTSLRSEDTAMYYCARGGLLFDYWGQGTTLTVSS
VL: B4 VL with N22S, Y55Q, G74E, S82R, N83S, I84V, I91V, F99S
B6: MTK-207 (antibody, human IgG1, V domains shown)
VH: QVQLKESGPGLVAPSQSLSITCTVSGISLTSYGVSWVRQPPGKGLEWLGIIWGDGSTNYHSALISRLSISKDNSKSQVFLKLNSLQTDDTATYYCAKGRYGNYEDWYFDVWGTGTTVTVSS
VL: DIQMTQSPASLSASVGETVTITCRASGNIHNYLAWYQQKQGKSPQLLVYNAKTLAAGVPSRFSGSGSGTQYSLKINSLQPEDFGSYYCQHFWSIPLTFGAGTKLELK

Molecular target: T1, human MerTK
Assay: FACS, SK-MEL-5 cells, 10 ug/ml
Procedure: To determine whether recombinant anti-human MerTK antibodies of the present disclosure bind to human MerTK endogenously expressed on SK-MEL-5 cells and CHO cells overexpressing mouse MerTK (CHO-muMerTK OE cells), as compared to A375 and parental CHO cells as negative controls, the following experiments were performed. SK-MEL-5 cells, A375 cells, CHO-muMerTK OE cells, and CHO parental cells were plated at 100,000 cells/well. Anti-MerTK antibodies were added to the cells at 10 μg/ml. After 60 minutes on ice, cells were washed and then stained with PE-conjugated goat anti-human IgG antibody (Southern Biotech Cat #2040-09, Birmingham, AL) in the presence of Fc block solution on ice for 30 minutes, and then washed twice with cold FACS buffer (2% FBS in PBS). Mouse anti-human MerTK-PE conjugated (Biolegend, Clone 590H11G1E3) or anti-mouse MerTK-PE conjugated (ThermoFisher, Clone DS5MMER) antibodies were used as positive controls. Stained cells were acquired on a BD FACS Canto II cytometer and the mean fluorescence intensity (MFI) was calculated with FlowJo.

MFI [MFI] | Binder
8080 | B1
40200 | B2
39000 | B3
46100 | B4
33800 | B5
1190 | B6

Molecular target: T2, endogenous murine MerTK on bone …
Assay: FACS, mouse BMDM, WT minus MerTK KO
Summary of the method: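 Bone marrow cells from MerTK WT and KO mice differentiated into macrophages with 50 ng/ml M-CSF for seven days. Antibodies at 10 μg/ml bound 60 min on ice, then PE anti-human IgG with Fc block 30 min on ice. Flow cytometry read-out as MFI, WT signal minus KO.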

MFI [MFI] | Binder
9090 | B1
619 | B2
639 | B3
4510 | B4
602 | B5
989 | B6

Molecular target: T3, mouse MerTK overexpressed on CHO cells
Assay: FACS, CHO-muMerTK OE cells, 10 ug/ml
Summary of the method: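 Flow cytometry MFI after 60 min on ice with test antibody, followed by 30 min PE goat anti-human IgG staining in Fc block. Cells plated at 100,000 per well. MerTK-negative A375 and parental CHO cells run alongside.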

MFI [MFI] | Binder
12800 | B1
285 | B2
594 | B3
4410 | B4
713 | B5
279 | B6
